B1: Geranylgeranylglyceryl phosphate synthase, O26652 (parent)
chain: MKVEDYFHDILRERKIHLTLIDPEEQTPEEAVEIARAAIRGGTDGIMLGGSTTDSSELDNTARALRENIDVPIILFPGNTTGVSRYADAIFFMSLLNSTNPYWIIGAQALGAATVKKMGIEALPMGYLVVEPGGTVGWVGDTKPVPRNKPDIAAAYAMAAEFLGMRLFYLEAGSGAPEHVPEEMIALVKRCTDQILIVGGGIRSGEDAARVAGAGADVVVTGTVVENSDNVEDKIREIVEGMGSV

The values that follow come from FireProtDB (doi:10.1021/acs.biochem.7b01284).

A word on the Tm: it is the temperature at which the thermal transition is half complete.

“And” between values parts separate entries of the source, which are not always exact repeats. Equal values may be shown once.

The variants in the first series derive from B1. To be noted: Methanothermobacter thermautotrophicus (strain ATCC 29096 / DSM 1053 / JCM 10044 / NBRC 100330 / Delta H); pH 7.5; Thermal; DSC; potassium phosphate buffer; reversible: no; structure 4MM1; whole UniProt chain shown.
As to Y102A, the “unfolding enthalpy (calorimetric)” value was 104 kcal/mol and 108 kcal/mol.

In the case of W138A, the “unfolding enthalpy (calorimetric)” value was 106 kcal/mol and 78.2 kcal/mol.

As to D54R, the “unfolding enthalpy (calorimetric)” value was 187 kcal/mol and 88 kcal/mol.

For the variant K143A, the “unfolding enthalpy (calorimetric)” value is 100 kcal/mol.

In the case of A159E, the melting temperature (Tm) came to 64 °C and the “unfolding enthalpy (calorimetric)” value was found to be 173 kcal/mol.

The series is the same for the next values; noted with them: Methanothermobacter thermautotrophicus (strain ATCC 29096 / DSM 1053 / JCM 10044 / NBRC 100330 / Delta H); pH 7.5; Thermal; DSF; potassium phosphate buffer; reversible: no; structure 4MM1; whole UniProt chain shown.
On to R85E, for which the Tm was 53.9 °C.

As for D54R, the Tm stood at 52.2 °C.

K143A: the melting temperature (Tm) was 66 °C.
